Measurements from patent publication CN114317455A.

Tests used:
[1] = biological target: MCR-1蛋白; assay: indirect ELISA; MCR-1 coated at 0.2 ug/mL; purified antibody (1 mg/ml) diluted two-fold from 1:1000; goat anti-mouse secondary
[2] = biological target: MCR-1蛋白; assay: double-antibody sandwich ELISA; 1HD4 coated at 0.2 mg/ml as capture, HRP-labelled 1JA9 as detection, OD450

B1: 鼠抗MCR-1蛋白单克隆抗体 1HD4 (antibody, V domains shown)
VH: VKLQESGPELVKPGASVKVSCKASGYIFTCCKMYWVKQSHGKSLEWIGYFDPYNGDTSSNQKFKGKVTLTVDKSSSTAYMFLNSLTSEDSAVYYCASWLQNYYAMDYWGQGTSVTVSS
VL: DVQMTQTTSSLSASLGDRVTISCRASQDISNYLNWYQQKPDGTVKLLIYYTSRLHSGVPSRFSGSGSGADYSLTISNLEEEDIATYFCQQGNTFPYTFGGGTKLEIK
B1 was tested, and the 效价 (ELISA titer, dilution of 1 mg/ml antibody) (dilution factor (1:x)) [1] was over 1.28e+06.

B2: 鼠抗MCR-1蛋白单克隆抗体 1JA9 (antibody, V domains shown)
VH: VKLQESGPELVKPGASVKMSCRTSGYTFTSYIMHWVKQKPGQGLEWIGYFNPYTDGSKYNEMFNGKATLSSDKSSGTAYMEFSSLTSEDSAVYYCARGPYGNYAMDYWGQGTSVTVSA
VL: EILLTQTPLSLPVSLGDQASISCRSSQNIVHSYGNPSLEWYLQKPGQSPKLLIYKVSNRFSGVPDRFSGSGSGTDFTLKISRVEAEDLGVYYCFQASHVPWTFGGGTKLEIKR
For B2, the 检测抗原灵敏度 (dilution factor) (dilution factor (1:x)) [2] was 5.12e+06 and the 效价 (ELISA titer, dilution of 1 mg/ml antibody) (dilution factor (1:x)) [1] was over 1.28e+06.
